Reference: patent publication US20160333095A1 (Genmab, published 2016)
Substitutions are numbered along the chain they refer to. Names may count otherwise.

Columns and labels:
cynomolgus CD3 [1] = molecular target: T1, cynomolgus CD3 (cynomolgus monkey, UniProt Q95LI5 22-198); assay: flow cytometry on HSC-F cells, FIG. 2A
T1 construct: also called CD3 on the cynomolgus T-cell line HSC-F; cynomolgus CD3ε (epsilon)
Method: (§1) In addition to the non-activating mutations, LFLEDA, the antibody variants contained F405L or K409R mutations as described in Example 1.
(§2) Cells (1×10⁵ cells/well) were incubated in polystyrene 96-well round-bottom plates (Greiner bio-one 650101) with serial dilutions of antibody preparations (range 5 to 10,000 ng/mL in 3-fold dilutions) in 100 μL PBS/0.1% BSA/0.02% azide at 4° C. for 30 min.
(§3) After washing twice in PBS/0.1% BSA/0.02% azide, cells were incubated in 100 μL with secondary antibody at 4° C. for 30 min. As a secondary antibody, R-Phycoerythrin (PE)-conjugated goat-anti-human IgG F(ab′)2 (109-116-098, Jackson ImmunoResearch Laboratories, Inc., West Grove, Pa.) diluted 1/100 in PBS/0.1% BSA/0.02% azide, was used for all experiments. Next, cells were washed twice in PBS/0.1% BSA/0.02% azide, re-suspended in 150 μL PBS/0.1% BSA/0.02% azide and analyzed on a FACS Cantoll (BD Biosciences). Binding curves were analyzed using non-linear regression (sigmoidal dose-response with variable slope) using GraphPad Prism V 5.04 software (GraphPad Software, San Diego, Calif., USA).

cynomolgus CD3 [2] = molecular target: T1, cynomolgus CD3; assay: flow cytometry on HSC-F cells, FIG. 2B
Method: as §1, §2, §3

human CD3 [3] = molecular target: T2, human CD3 (human, UniProt P07766 22-207); assay: flow cytometry on Jurkat cells, supernatant preparations, FIG. 21
T2 construct: also called CD3 on the human T-cell line Jurkat; CD3 on human T cells
T2 sequence (P07766 22-207 limits assumed): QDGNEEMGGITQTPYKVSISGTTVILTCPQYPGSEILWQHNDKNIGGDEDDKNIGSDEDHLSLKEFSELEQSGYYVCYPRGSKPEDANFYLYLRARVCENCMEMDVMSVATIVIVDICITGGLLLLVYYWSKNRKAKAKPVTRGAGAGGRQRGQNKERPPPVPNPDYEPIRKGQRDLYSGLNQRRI
Method: (§4) Jurkat cells (DSMZ, Brunswick, Germany) were thawed at 37° C. and washed once in 30 mL PBS and spun for 10 minutes at 300×g at 4° C. Cell pellet was resuspended in 25 mL of PBS/0.1% BSA/0.02% azide at a final concentration of 0.8×10⁶ cells/mL. 100 μL of this cell suspension (0.8×10⁵ cells/well) was transferred into polystyrene 96-well round-bottom plates (Greiner Bio-one, Alphen a/d Rijn, The Netherlands) and incubated with serial dilutions of supernatant preparations (range 3 to 10,000 ng/mL in 3-fold dilutions) in PBS/0.1% BSA/0.02% azide at 4° C. for 30 minutes. After washing three times in PBS/0.1% BSA/0.02% azide, Jurkat cells were incubated in 50 μL with secondary antibody at 4° C. for 30 min. As a secondary antibody, R-Phycoerythrin (PE)-conjugated goat-anti-human IgG F(ab′)2 (Jackson ImmunoResearch Laboratories, Inc., West Grove, Pa.) diluted 1/200 in PBS/0.1% BSA/0.02% azide, was used for all experiments. Next, Jurkat cells were washed twice in PBS/0.1% BSA/0.02% azide, re-suspended in 150 μL PBS/0.1% BSA/0.02% azide and analyzed on a FACS Cantoll (BD Biosciences). Binding curves were analyzed using nonlinear regression (sigmoidal dose-response with variable slope) using GraphPad Prism V 5.04 software (GraphPad Software, San Diego, Calif., USA).

human CD3 [4] = molecular target: T2, human CD3; assay: flow cytometry on Jurkat cells, FIG. 21
Method: as §4

cynomolgus CD3 [5] = molecular target: T1, cynomolgus CD3; assay: flow cytometry on HSC-F cells, FIG. 7A
Method: as §1, §2, §3

cynomolgus CD3 [6] = molecular target: T1, cynomolgus CD3; assay: flow cytometry on HSC-F cells, FIG. 7B
Method: as §1, §2, §3

human CD3 [7] = molecular target: T2, human CD3; assay: flow cytometry on isolated human T cells, FIG. 22
Method: As a secondary antibody, R-Phycoerythrin (PE)-conjugated goat-anti-human IgG F(ab′)2 (Jackson ImmunoResearch Laboratories, Inc., West Grove, Pa.) diluted 1/200 in PBS/0.1% BSA/0.02% azide, was used for all experiments. […] Binding curves were analyzed using nonlinear regression (sigmoidal dose-response with variable slope) using GraphPad Prism V 5.04 software (GraphPad Software, San Diego, Calif., USA).

T1 sequence (Q95LI5 22-198): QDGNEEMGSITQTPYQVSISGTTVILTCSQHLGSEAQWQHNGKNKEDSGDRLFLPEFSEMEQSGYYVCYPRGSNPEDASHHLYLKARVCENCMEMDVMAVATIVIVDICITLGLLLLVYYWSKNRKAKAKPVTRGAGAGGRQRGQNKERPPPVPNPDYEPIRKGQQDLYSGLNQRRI

B1: IgG1-huCD3-H1L1 (antibody, V domains shown)
VH: EVKLVESGGGLVQPGGSLRLSCAASGFTFNTYAMNWVRQAPGKGLEWVARIRSKYNNYATYYADSVKDRFTISRDDSKSSLYLQMNNLKTEDTAMYYCVRHGNFGNSYVSWFAYWGQGTLVTVSS
VL: not shown
notes: IgG1,λ with wild-type Fc region
binding result (cynomolgus CD3 [1]): binds

B2: bsIgG1 huCD3-H3L1×HER2-LFLEDA (bispecific antibody, V domains shown)
VH 1: B1 VH with Q13K, G16R, S80I, N87S
VL 1: not shown
VH 2: QVQLVQSGAEVKKPGASVKVSCKASGYTFTNYGISWVRQAPGQGLEWMGWLSAYSGNTIYAQKLQGRVTMTTDTSTTTAYMELRSLRSDDTAVYYCARDRIVVRPDYFDYWGQGTLVTVSS
VL 2: EIVLTQSPATLSLSPGERATLSCRASQSVSSYLAWYQQKPGQAPRLLIYDASNRATGIPARFSGSGSGTDFTLTISSLEPEDFAVYYCQQRSNWPRTFGQGTKVEIK
notes: LFLEDA = L234F/L235E/D265A; also called bsIgG1 huCD3-H3L1-LFLEDA
binding result (cynomolgus CD3 [2]): binds

B3: IgG1-CD3-LFLEDA (antibody, V domains shown)
VH: B1 VH with V5L, G15K, R19K, K78Q, S80I, S125A
VL: QAVVTQESALTTSPGETVTLTCRSSTGAVTTSNYANWVQEKPDHLFTGLIGGTNKRAPGVPARFSGSLIGDKAALTITGAQTEDEAIYFCALWYSNLWVFGGGTKLTVL
notes: also called chimeric, parental CD3 antibody
binding result (cynomolgus CD3 [1]): binds

B4: IgG1-huCD3-H3L3 (antibody, V domains shown)
VH: B1 VH with Q13K, G16R, S80I, N87S
VL: QAVVTQEPSFSVSPGGTVTLTCRSSTGAVTTSNYANWVQQTPGQAFRGLIGGTNKRAPGVPARFSGSILGNKAALTITGAQADDESDYYCALWYSNLWVFGGGTKLTVL
notes: as for B1
binding result (cynomolgus CD3 [1]): binds

B5: bsIgG1 CD3×HER2 (bispecific antibody, V domains shown)
VH 1: B1 VH with V5L, G15K, R19K, K78Q, S80I, S125A
VL 1: B3 VL
VH 2: B2 VH 2
VL 2: B2 VL 2
binding result (cynomolgus CD3 [2]): binds

B6: IgG1-huCD3-H1-LFLEDA-LL97H (antibody, V domains shown)
VH: B1 VH
VL: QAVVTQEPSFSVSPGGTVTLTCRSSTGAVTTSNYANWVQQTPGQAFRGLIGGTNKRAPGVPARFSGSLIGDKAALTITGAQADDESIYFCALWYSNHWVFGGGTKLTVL
notes: IgG1 with LFLEDA; supernatant preparation
EC50 (human CD3 [3]): 0.095 µg/mL

B7: IgG1-huCD3-H3L1-LFLEDA (antibody, V domains shown)
VH: B1 VH with Q13K, G16R, S80I, N87S
VL: not shown
binding result (cynomolgus CD3 [1]): binds

B8: IgG1-huCD3-H1-LFLEDA-LK55N (antibody, V domains shown)
VH: B1 VH
VL: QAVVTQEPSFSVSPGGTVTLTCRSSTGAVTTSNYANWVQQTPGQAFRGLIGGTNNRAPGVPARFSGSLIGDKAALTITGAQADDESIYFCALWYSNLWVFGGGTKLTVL
notes: IgG1 with LFLEDA; supernatant preparation; also called K55N mutant
fold lower apparent affinity than wild type IgG1-huCD3-H1L1-LFLEDA (human CD3 [4]): 5 fold
EC50 (human CD3 [3]): 0.531 µg/mL

B9: IgG1-huCD3-H4L1-LFLEDA (antibody, V domains shown)
VH: B1 VH with Q13K, G16R, S80I, N87S, L120M
VL: not shown
binding result (cynomolgus CD3 [5]): binds

B10: IgG1-huCD3-H1-LFLEDA-LF10L (antibody, V domains shown)
VH: B1 VH
VL: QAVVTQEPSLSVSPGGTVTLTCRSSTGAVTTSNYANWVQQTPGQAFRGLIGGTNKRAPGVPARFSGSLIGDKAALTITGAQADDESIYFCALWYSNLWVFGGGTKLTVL
notes: IgG1 with LFLEDA (L234F/L235E/D265A); tested as supernatant preparation; also called IgG1-huCD3-H1L1-LF10L (with LFLEDA)
EC50 (human CD3 [3]): 0.169 µg/mL

B11: bsIgG1-huCD3-H3L3×HER2-LFLEDA (bispecific antibody, V domains shown)
VH 1: B1 VH with Q13K, G16R, S80I, N87S
VL 1: B4 VL
VH 2: B2 VH 2
VL 2: B2 VL 2
notes: LFLEDA = L234F/L235E/D265A
binding result (cynomolgus CD3 [6]): binds

B12: bsIgG1-huCD3-H4L1×HER2-LFLEDA (bispecific antibody, V domains shown)
VH 1: B1 VH with Q13K, G16R, S80I, N87S, L120M
VL 1: not shown
VH 2: B2 VH 2
VL 2: B2 VL 2
notes: LFLEDA = L234F/L235E/D265A
binding result (cynomolgus CD3 [6]): binds

B13: IgG1-huCD3-H1-LFLEDA-LT41K (antibody, V domains shown)
VH: B1 VH
VL: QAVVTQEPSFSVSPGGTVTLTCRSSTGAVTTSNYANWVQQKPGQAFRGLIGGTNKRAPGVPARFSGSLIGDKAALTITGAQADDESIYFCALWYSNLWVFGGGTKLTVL
notes: IgG1 with LFLEDA; supernatant preparation; also called T41K mutant
EC50 (human CD3 [3]): 0.096 µg/mL

B14: IgG1-huCD3-H4L3-LFLEDA (antibody, V domains shown)
VH: B1 VH with Q13K, G16R, S80I, N87S, L120M
VL: B4 VL
binding result (cynomolgus CD3 [5]): binds

B15: IgG1-huCD3-H4L1 (antibody, V domains shown)
VH: B1 VH with Q13K, G16R, S80I, N87S, L120M
VL: not shown
notes: as for B1
binding result (cynomolgus CD3 [1]): binds

B16: IgG1-huCD3-H3L3-LFLEDA (antibody, V domains shown)
VH: B1 VH with Q13K, G16R, S80I, N87S
VL: B4 VL
binding result (cynomolgus CD3 [5]): binds

B17: bsIgG1-huCD3-H4L3×HER2-LFLEDA (bispecific antibody, V domains shown)
VH 1: B1 VH with Q13K, G16R, S80I, N87S, L120M
VL 1: B4 VL
VH 2: B2 VH 2
VL 2: B2 VL 2
notes: LFLEDA = L234F/L235E/D265A
binding result (cynomolgus CD3 [6]): binds

B18: IgG1-huCD3-H1L2 (antibody, V domains shown)
VH: B1 VH
VL: B4 VL with D87I, Y89F
notes: as for B1
binding result (cynomolgus CD3 [1]): binds

B19: bsIgG1-huCD3-H1L1×HER2-LFLEDA (bispecific antibody, V domains shown)
VH 1: B1 VH
VL 1: not shown
VH 2: B2 VH 2
VL 2: B2 VL 2
notes: LFLEDA = L234F/L235E/D265A
binding result (cynomolgus CD3 [6]): binds

B20: bsIgG1-huCD3-H1L3×HER2-LFLEDA (bispecific antibody, V domains shown)
VH 1: B1 VH
VL 1: B4 VL
VH 2: B2 VH 2
VL 2: B2 VL 2
notes: LFLEDA = L234F/L235E/D265A
binding result (cynomolgus CD3 [6]): binds

B21: IgG1-huCD3-H1L1-LFLEDA (antibody, V domains shown)
VH: B1 VH
VL: not shown
notes: also called IgG1-3huCD3-H1L1-LFLEDA; wild type IgG1-huCD3-H1L1-LFLEDA
binding result (cynomolgus CD3 [5]): binds

B22: IgG1-huCD3-H1L3 (antibody, V domains shown)
VH: B1 VH
VL: B4 VL
notes: as for B1
binding result (cynomolgus CD3 [1]): binds

B23: IgG1-huCD3-H1-LFLEDA-LLKNH (antibody, V domains shown)
VH: B1 VH
VL: B4 VL with F10L, T41K, K55N, I68L, L69I, N71D, D87I, Y89F, L97H
notes: IgG1 with LFLEDA; supernatant preparation; also called LKNH mutant
fold lower apparent affinity than wild type IgG1-huCD3-H1L1-LFLEDA (human CD3 [4]): 5 fold
EC50 (human CD3 [3]): 0.438 µg/mL

B24: bsIgG1-huCD3-H1L1-LK55N/HER2-LFLEDA (bispecific antibody, V domains shown)
VH 1: B1 VH
VL 1: not shown
VH 2: B2 VH 2
VL 2: B2 VL 2
notes: LFLEDA = L234F/L235E/D265A; also called bsIgG1-huCD3-LK55N/HER2-LFLEDA
EC50 (human CD3 [7]): 0.61 µg/mL

B25: IgG1-huCD3-H1L3-LFLEDA (antibody, V domains shown)
VH: B1 VH
VL: B4 VL
binding result (cynomolgus CD3 [5]): binds
